± gives the uncertainty stated by the source.

This data set is described as follows: self-splicing fitness, log relative to wild type (ln ratio); higher = more splicing; Tetrahymena group I intron in knt gene, E. coli kanamycin selection, DiMSum; sequences stand for … in CUCUCU…GGAGGGAAAAGUUAUCAGGCAUGCACCUGGUAGCUAGUCUUUAAACCAAUAGAUUGCAUCGGUUUAAAAGGCAAGACCGUCAAAUUGCGGGAAAGGGGUCAACAGCCGUUCAGUACCAAGUCUCAGGGGAAACUUUGAGAUGGCCUUGCAAAGGGUAUGGUAAUAAGCUGACGGACAUGGUCCUAACCACGCAGCCAAGUCCUAAGUCAACAGAUCUUCUGUUGAUAUGGAUGCAGUUCACAGACUAAAUGUCGGUCGGGGAAGAUGUAUUCUUCUCAUAAGAUAUAGUCGGACCUCUCCUUAAUGGGAGCUAGCGGAUGAAGUGAUGCAACACUGGAGCCGCUGGGAACUAAUUUGUAUGCGAAAGUAUAUUGAUUAGUUUUGGAGUACUCGUGGUCG
In short, it runs like this: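 Colonies from six replicate transformations of E. coli BL21(DE3) were pooled and amplicon-sequenced on an Illumina HiSeq 2500. The library placed an intron with all eight P1ex-region nucleotides randomised inside the knt kanamycin-resistance gene on pET-22b(+), and cells grew overnight at 37°C or 30°C on LB agar with or without 25 μg/mL kanamycin (plus 100 μg/mL carbenicillin, 50 μM IPTG, 0.2% rhamnose). Fitness is the DiMSum error-weighted combination of wild-type-normalised replicate fold changes, kanamycin versus none.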

Turning to UUCGAGCAAUAUUACGUUAG, the “self-splicing fitness (ln)” value was -4.22 ± 0.42 (30 °C) and -3.37 ± 0.3 (37 °C).
Taken in the same sequence, the figures for UACUAGCAAUAUUACGGUGG were -2.1 ± 0.09 and -1 ± 0.098.
As for GGCAAGCAAUAUUACGCAAC, the “self-splicing fitness (ln)” value reads like this: (30 °C) -2.24 ± 0.12; (37 °C) -0.823 ± 0.1.
Taken in the same sequence, the figures for CAUCAGCAAUAUUACGACGU were -0.965 ± 0.064 and -0.79 ± 0.09.
Taken in the same sequence, the figures for GACCAGCAAUAUUACGGUUC were -5.29 ± 0.25 and -2.73 ± 0.14.
Regarding AGACAGCAAUAUUACGGACA, the “self-splicing fitness (ln)” value (30 °C) is -1.09 ± 0.1 and the “self-splicing fitness (ln)” value (37 °C) is -0.425 ± 0.12.
Taken in the same sequence, the figures for GACCAGCAAUAUUACGUAUG were -1.75 ± 0.065 and -0.824 ± 0.076.
Taken in the same sequence, the figures for AAUAAGCAAUAUUACGUACC were -0.867 ± 0.14 and -0.89 ± 0.15.
As to AUUAAGCAAUAUUACGUCAC, the “self-splicing fitness (ln)” value (37 °C) was -1.54 ± 0.4.
As to UUCCAGCAAUAUUACGGAGA, the “self-splicing fitness (ln)” value was -1.83 ± 0.084 (30 °C) and -0.628 ± 0.081 (37 °C).
Taken in the same sequence, the figures for GUUAAGCAAUAUUACGACAC were -0.925 ± 0.13 and 0.479 ± 0.19.
Taken in the same sequence, the figures for CGUUAGCAAUAUUACGGCCA were -1.01 ± 0.29 and -2.55 ± 0.46.
Taken in the same sequence, the figures for GCGCAGCAAUAUUACGUGGG were -2.53 ± 0.1 and -1.6 ± 0.11.
Take AACAAGCAAUAUUACGGGGG: the “self-splicing fitness (ln)” value is, setting by setting: (30 °C) -2.94 ± 0.17; (37 °C) -1.86 ± 0.17.
For GCCUAGCAAUAUUACGUGAC the same measures were -1.12 ± 0.17 and 0.101 ± 0.17.
As for UGGUAGCAAUAUUACGAGAA, the “self-splicing fitness (ln)” value (37 °C) was -1.11 ± 0.36.
With GAAUAGCAAUAUUACGAAUG, the “self-splicing fitness (ln)” value is, setting by setting: (30 °C) -1.42 ± 0.24; (37 °C) -1.15 ± 0.28.
Consider ACCGAGCAAUAUUACGCCUA, for which, where the note is “37 °C”, the “self-splicing fitness (ln)” value was -1.93 ± 0.28.
For the sequence GAUCAGCAAUAUUACGCUCG, the “self-splicing fitness (ln)” value (30 °C) was found to be 0.0547 ± 0.089 and the “self-splicing fitness (ln)” value (37 °C) is -0.0564 ± 0.12.
Taken in the same sequence, the figures for GUCGAGCAAUAUUACGAGUG were -1.62 ± 0.088 and -1.85 ± 0.11.
On to AAGAAGCAAUAUUACGGGCC, for which the “self-splicing fitness (ln)” value (30 °C) is -2.42 ± 0.22 and the “self-splicing fitness (ln)” value (37 °C) was -1.52 ± 0.21.
For UGGAAGCAAUAUUACGACAU the same measures were -2.825 ± 0.021 and -1.92 ± 0.035.
Consider CCCGAGCAAUAUUACGGGGC, for which the “self-splicing fitness (ln)” value reads like this: (30 °C) -3.75 ± 0.19; (37 °C) -2.74 ± 0.17.
Taken in the same sequence, the figures for CGCAAGCAAUAUUACGCCUU were -2.63 ± 0.17 and -2.62 ± 0.26.
On to GUGAAGCAAUAUUACGACAC, for which the “self-splicing fitness (ln)” value by setting is: (30 °C) -1.1 ± 0.12; (37 °C) 0.386 ± 0.18.
For AGAAAGCAAUAUUACGCGGG the same measures were -2.43 ± 0.24 and -2.25 ± 0.26.
For GGGCAGCAAUAUUACGUAGA the same measures were -1.53 ± 0.063 and -0.244 ± 0.083.
Taken in the same sequence, the figures for GGUUAGCAAUAUUACGUAAG were -0.619 ± 0.14 and -0.436 ± 0.23.
For CCAAAGCAAUAUUACGUUAA, the “self-splicing fitness (ln)” value runs as follows: (30 °C) -3.93 ± 0.26; (37 °C) -1.97 ± 0.22.
Taken in the same sequence, the figures for CUCCAGCAAUAUUACGUUGA were -2.56 ± 0.18 and -2.87 ± 0.19.
For CAUCAGCAAUAUUACGGCCG the same measures were -0.131 ± 0.093 and -0.0546 ± 0.14.
Taken in the same sequence, the figures for UGACAGCAAUAUUACGUGAC were -2.64 ± 0.12 and -1.37 ± 0.19.
With GUAUAGCAAUAUUACGAUAA, the “self-splicing fitness (ln)” value was -0.869 ± 0.12 (30 °C) and -0.771 ± 0.16 (37 °C).
Taken in the same sequence, the figures for CAUCAGCAAUAUUACGGAAC were -2.6 ± 0.19 and -2.54 ± 0.36.
Taken in the same sequence, the figures for CCGGAGCAAUAUUACGACUU were -2.23 ± 0.24 and -1.86 ± 0.48.
For CGAAAGCAAUAUUACGAUUA the same measures were -1.48 ± 0.11 and -1.06 ± 0.13.
Turning to UCCGAGCAAUAUUACGUAAG, the “self-splicing fitness (ln)” value was -4.92 ± 0.38 (30 °C) and -2.13 ± 0.25 (37 °C).
Consider CUCCAGCAAUAUUACGCGUG, for which the “self-splicing fitness (ln)” value is -2.19 ± 0.075 (30 °C) and -1.29 ± 0.085 (37 °C).
For UCAUAGCAAUAUUACGACUC the same measures were -2.18 ± 0.37 and -1.46 ± 0.37.
For AUGGAGCAAUAUUACGAAGG, the “self-splicing fitness (ln)” value by setting is: (30 °C) -3 ± 0.23; (37 °C) -2.29 ± 0.34.
For CGCAAGCAAUAUUACGUUUA the same measures were -2.8 ± 0.12 and -1.98 ± 0.095.
With CAAUAGCAAUAUUACGCUGG, the “self-splicing fitness (ln)” value (30 °C) is -1.32 ± 0.13 and the “self-splicing fitness (ln)” value (37 °C) was -0.734 ± 0.14.
In the case of CAGAAGCAAUAUUACGCCAG, the “self-splicing fitness (ln)” value runs as follows: (30 °C) -0.586 ± 0.072; (37 °C) -0.605 ± 0.12.
For CACGAGCAAUAUUACGUGGU the same measures were -3.86 ± 0.24 and -2.25 ± 0.18.
Taken in the same sequence, the figures for CUUUAGCAAUAUUACGCGUC were -4.35 ± 0.3 and -2.85 ± 0.22.
For the sequence UGAAAGCAAUAUUACGACAG, the “self-splicing fitness (ln)” value was -0.875 ± 0.1 (30 °C) and -0.652 ± 0.13 (37 °C).
For the sequence ACCGAGCAAUAUUACGAGAC, the “self-splicing fitness (ln)” value is -3.81 ± 0.25 (30 °C) and -2.84 ± 0.4 (37 °C).
GCCAAGCAAUAUUACGAUAG: the “self-splicing fitness (ln)” value by setting is: (30 °C) -3.28 ± 0.36; (37 °C) -2.43 ± 0.25.
Taken in the same sequence, the figures for AGUCAGCAAUAUUACGCAGU were -1.89 ± 0.23 and -0.11 ± 0.17.
GUAUAGCAAUAUUACGAGAA: the “self-splicing fitness (ln)” value (37 °C) was -2.32 ± 0.49.
With ACCUAGCAAUAUUACGCCCA, the “self-splicing fitness (ln)” value is, setting by setting: (30 °C) -1.16 ± 0.11; (37 °C) -0.343 ± 0.12.
Taken in the same sequence, the figures for UAGGAGCAAUAUUACGUUUU were -1.88 ± 0.23 and -1.89 ± 0.27.
Taken in the same sequence, the figures for CUCUAGCAAUAUUACGUAGG were -2.83 ± 0.18 and -1.9 ± 0.22.
Take ACCCAGCAAUAUUACGUACA: the “self-splicing fitness (ln)” value runs as follows: (30 °C) -1.85 ± 0.087; (37 °C) -0.804 ± 0.085.
For the sequence UCCAAGCAAUAUUACGGGAA, the “self-splicing fitness (ln)” value (30 °C) is -1.07 ± 0.078 and the “self-splicing fitness (ln)” value (37 °C) was -0.547 ± 0.079.
Taken in the same sequence, the figures for CCACAGCAAUAUUACGAGUU were -2.76 ± 0.09 and -2.76 ± 0.12.
For UGUGAGCAAUAUUACGACCU the same measures were -0.867 ± 0.17 and 0.0453 ± 0.26.
Consider CCCGAGCAAUAUUACGAAGG, for which, where the note is “37 °C”, the “self-splicing fitness (ln)” value was -2.18 ± 0.23.
Turning to ACAAAGCAAUAUUACGCCAA, the “self-splicing fitness (ln)” value reads like this: (30 °C) -2.34 ± 0.24; (37 °C) -1.86 ± 0.18.
In the case of CUCAAGCAAUAUUACGAUAG, the “self-splicing fitness (ln)” value is, setting by setting: (30 °C) -2 ± 0.1; (37 °C) -0.283 ± 0.1.
On to AUGAAGCAAUAUUACGGCUA, for which the “self-splicing fitness (ln)” value (30 °C) is 0.423 ± 0.092 and the “self-splicing fitness (ln)” value (37 °C) came to 0.486 ± 0.11.

The record behind these values is the supplement of paper PMC7877785.
